Common to all, as to assay: SPR (Biacore 3000), fusion protein immobilized on CM5, TGF-β injected
In one assay the target is T1, TGF-β1 (UniProt P01137 279-390).
T1 construct: also called TGF-b1
As to the method:
(§1) Surface plasma resonance (SPR) analysis was performed using Biacore3000, CM5 chip, an amine-coupling kit, 10×HBS-P running buffer and Glycine for regeneration (GE Healthcare). […] Dissociation was allowed to proceed followed by a pulse of 10 mM Glycine (pH 1.5) for regeneration of the chip surface.

Another assay deals with T2, TGF-β2 (UniProt P61812 303-414).
T2 sequence (looked up): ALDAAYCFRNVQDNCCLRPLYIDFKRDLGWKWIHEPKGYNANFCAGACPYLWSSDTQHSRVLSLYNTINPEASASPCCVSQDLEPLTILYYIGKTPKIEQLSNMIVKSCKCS
As to the method:
as §1

In another assay the target is T3, TGF-β3 (UniProt P10600 301-412).
T3 sequence (looked up): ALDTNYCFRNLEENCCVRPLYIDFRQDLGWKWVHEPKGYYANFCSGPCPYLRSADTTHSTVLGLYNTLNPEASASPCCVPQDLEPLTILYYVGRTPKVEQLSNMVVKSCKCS
As to the method: as §1

A word on the Kd: it is the concentration at which binding is half-saturated. Read a low Kd as higher affinity.

T1 sequence (P01137 279-390 limits assumed): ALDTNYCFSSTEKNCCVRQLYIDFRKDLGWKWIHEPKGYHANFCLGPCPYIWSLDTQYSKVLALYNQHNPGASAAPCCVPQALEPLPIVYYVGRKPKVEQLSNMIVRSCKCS

B1: Anti-PD-1(VH6-VL5) IgG4-TGFβRII (other)
heavy: QVQLVESGGGVVQPGRSLRLDCKASGITFSNSGMHWVRQAPGKGLEWVAVIWYDGSKRYYADSVKGRFTISRDNSKNTLFLQMNSLRAEDTAVYYCATNDDYWGQGTLVTVSSASTKGPSVFPLAPCSRSTSESTAALGCLVKDYFPEPVTVSWNSGALTSGVHTFPAVLQSSGLYSLSSVVTVPSSSLGTKTYTCNVDHKPSNTKVDKRVESKYGPPCPSCPAPEFLGGPSVFLFPPKPKDTLMISRTPEVTCVVVDVSQEDPEVQFNWYVDGVEVHNAKTKPREEQFNSTYRVVSVLTVLHQDWLNGKEYKCKVSNKGLPSSIEKTISKAKGQPREPQVYTLPPSQEEMTKNQVSLTCLVKGFYPSDIAVEWESNGQPENNYKTTPPVLDSDGSFFLYSRLTVDKSRWQEGNVFSCSVMHEALHNHYTQKSLSLSPGKGGGGSGGGGSIPPHVQKSVNNDMIVTDNNGAVKFPQLCKFCDVRFSTCDNQKSCMSNCSITSICEKPQEVCVAVWRKNDENITLETVCHDPKLPYHDFILEDAASPKCIMKEKKKPGETFFMCSCSSDECNDNIIFSEEYNTSNPD
light: not shown
notes: also called anti-PD-1 IgG4 antibody (VH6-VL5)-TGFβRII fusion protein; VH6-IgG4(wt)-linker-ECD with VL5
As to B1, the results for the Kd in the assay with TGF-β1, in the assay with TGF-β2 and with TGF-β3 were 5.22 pM, 859 pM and 2.19 pM, respectively.

(Values after patent publication US20220023420A1 (PRECIGEN, published 2022).)
